Reference: PMC8519809 (Cell Reports, 2021)

Target: SARS-CoV-1 S-2P protein (SARS-CoV-1 (human SARS coronavirus); …, stabilised)
Test: SPR

B1: Fab22 (Fab, V domains shown)
VH: EVQLQQPGPVLVKPGASVRMSCKASGYRITDNFMNWVKQSHGKSLEWIGIINPYNGGTKYNQKFKGKATLTVDTSSSTAYMELNSLTSEDSAVYYCTRVRGNDYHGRAMDYWGQGTSVTVSS
VL: DVVLTQTPLSLPVNIGDQASISCKSTKSLLNRDGFTFLDWYLQKPGQSPQLLIYLVSNRFSGVPDRFSGSGSGTDFTLKISRVEAEDLGVYYCFQSNYLFTFGSGTKLEIK
  Kd: 7.2 nM
